The results in this text go back to the supplement of paper PMC5998384.

The test system of series [1] is HeLa Kyoto. The series is described as follows: melting temperature (median over replicates), in situ; higher = more thermally stable.
Series [2] relates to HeLa Kyoto. The series is described as follows: thermal stability score vs G1/S (z-score of summed log2 fold changes over temperatures); higher = more thermally stable than in G1/S.
Series [3] concerns HeLa Kyoto. The series can be described thus: solubility in G1/S (NP-40 vs SDS abundance) (log2 ratio); higher = more soluble. The note with it: cell cycle stage: G1/S.
Series [4] has as its system HeLa Kyoto. The series can be described thus: solubility change mitosis vs G1/S (difference of NP-40 vs SDS log2 ratios) (log2 ratio difference); higher = more soluble in mitosis.
The mark [5] stands for this setting: cell cycle stage: early G1 (4.5 h after nocodazole release).
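For melting temperature (median over replicates), in situ in this document: HeLa Kyoto cells synchronized by double thymidine or nocodazole block, proteins quantified by TMT10plex mass spectrometry, three independent biological replicates.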
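For solubility change mitosis vs G1/S (difference of NP-40 vs SDS log2 ratios) in this document: synchronized HeLa Kyoto cells (double thymidine block for G1/S, nocodazole release for mitosis), protein amounts in NP-40 versus SDS lysates quantified by mass spectrometry, three biological replicates.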
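For solubility in G1/S (NP-40 vs SDS abundance) in this document: HeLa Kyoto cells arrested at G1/S by double thymidine block, proteins quantified by TMT10plex mass spectrometry in mild NP-40 versus SDS extracts, three biological replicates.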
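For thermal stability score vs G1/S (z-score of summed log2 fold changes over temperatures) in this document: synchronized HeLa Kyoto cells, proteins quantified by TMT10plex mass spectrometry, three biological replicates, mitosis taken 0.5 h after nocodazole release, G1/S directly after double thymidine block.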

For the sequence “MAMAEGERTECAEPPRDEPPADGALKRAEELKTQANDYFKAKDYENAIKFYSQAIELNPSNAIYYGNRSLAYLRTECYGYALGDATRAIELDKKYIKGYYRRAASNMALGKFRAALRDYETVVKVKPHDKDAKMKYQECNKIVKQKAFERAIAGDEHKRSVVDSLDIESMTIEDEYSGPKLEDGKVTISFMKELMQWYKDQKKLHRKCAYQILVQVKEVLSKLSTLVETTLKETEKITVCGDTHGQFYDLLNIFELNGLPSETNPYIFNGDFVDRGSFSVEVILTLFGFKLLYPDHFHLLRGNHETDNMNQIYGFEGEVKAKYTAQMYELFSEVFEWLPLAQCINGKVLIMHGGLFSEDGVTLDDIRKIERNRQPPDSGPMCDLLWSDPQPQNGRSISKRGVSCQFGPDVTKAFLEENNLDYIIRSHEVKAEGYEVAHGGRCVTVFSAPNYCDQMGNKASYIHLQGSDLRPQFHQFTAVPHPNVKPMAYANTLLQLGMM [PPP5C]”, the melting temperature in the series on HeLa Kyoto [1] (cell cycle stage: G1/S) worked out at 52.2 °C; in the series with HeLa Kyoto [1] (cell cycle stage: mitosis), 51.6 °C. Besides, the thermal stability score in the series with HeLa Kyoto [2] (setting [5]) is -0.0521; with HeLa Kyoto [2] (cell cycle stage: mitosis), -1.42. For the same sequence, in the series on HeLa Kyoto [3], the “solubility in G1/S (log2)” value worked out at 0.0833. Also, in the series with HeLa Kyoto [4], the “solubility change mitosis (log2)” value was -0.207.

Take “MLLKEYRICMPLTVDEYKIGQLYMISKHSHEQSDRGEGVEVVQNEPFEDPHHGNGQFTEKRVYLNSKLPSWARAVVPKIFYVTEKAWNYYPYTITEYTCSFLPKFSIHIETKYEDNKGSNDTIFDNEAKDVEREVCFIDIACDEIPERYYKESEDPKHFKSEKTGRGQLREGWRDSHQPIMCSYKLVTVKFEVWGLQTRVEQFVHKVVRDILLIGHRQAFAWVDEWYDMTMDEVREFERATQEATNKKIGIFPPAISISSIPLLPSSVRSAPSSAPSTPLSTDAPEFLSVPKDRPRKKSAPETLTLPDPEKKATLNLPGMHSSDKPCRPKSE [PITPNC1]”: the melting temperature in the series on HeLa Kyoto [1] (cell cycle stage: G1/S) turned out to be 51.7 °C; with HeLa Kyoto [1] (cell cycle stage: mitosis), 51.5 °C. In addition, the thermal stability score with HeLa Kyoto [2] (setting [5]) was 0.0627; in the series on HeLa Kyoto [2] (cell cycle stage: mitosis), -1.13. Besides, the “solubility in G1/S (log2)” value in the series on HeLa Kyoto [3] is -0.0542. For the same sequence, the “solubility change mitosis (log2)” value with HeLa Kyoto [4] is -0.0509.

For “MGTDSRAAKALLARARTLHLQTGNLLNWGRLRKKCPSTHSEELHDCIQKTLNEWSSQINPDLVREFPDVLECTVSHAVEKINPDEREEMKVSAKLFIVESNSSSSTRSAVDMACSVLGVAQLDSVIIASPPIEDGVNLSLEHLQPYWEELENLVQSKKIVAIGTSDLDKTQLEQLYQWAQVKPNSNQVNLASCCVMPPDLTAFAKQFDIQLLTHNDPKELLSEASFQEALQESIPDIQAHEWVPLWLLRYSVIVKSRGIIKSKGYILQAKRRGS [GCLM]”, the melting temperature in the series with HeLa Kyoto [1] (cell cycle stage: G1/S) came to 48.3 °C; in the series with HeLa Kyoto [1] (cell cycle stage: mitosis), 49 °C. Further, the results for the thermal stability score in the series on HeLa Kyoto [2] (setting [5]) and in the series with HeLa Kyoto [2] (cell cycle stage: mitosis) were 0.373 and 1.08, respectively. Also, the “solubility in G1/S (log2)” value with HeLa Kyoto [3] stood at 0.229. Further, the “solubility change mitosis (log2)” value in the series on HeLa Kyoto [4] was -0.0843.

In the case of “MTEQAISFAKDFLAGGIAAAISKTAVAPIERVKLLLQVQHASKQIAADKQYKGIVDCIVRIPKEQGVLSFWRGNLANVIRYFPTQALNFAFKDKYKQIFLGGVDKHTQFWRYFAGNLASGGAAGATSLCFVYPLDFARTRLAADVGKSGTEREFRGLGDCLVKITKSDGIRGLYQGFSVSVQGIIIYRAAYFGVYDTAKGMLPDPKNTHIVVSWMIAQTVTAVAGVVSYPFDTVRRRMMMQSGRKGADIMYTGTVDCWRKIFRDEGGKAFFKGAWSNVLRGMGGAFVLVLYDELKKVI [SLC25A6]”, the results for the melting temperature in the series on HeLa Kyoto [1] (cell cycle stage: G1/S) and with HeLa Kyoto [1] (cell cycle stage: mitosis) were 57.1 °C and 57.4 °C, respectively. Moreover, the thermal stability score in the series on HeLa Kyoto [2] (setting [5]) is -0.865; in the series on HeLa Kyoto [2] (cell cycle stage: mitosis), -3.48. Further, the “solubility in G1/S (log2)” value in the series with HeLa Kyoto [3] was -0.157. In addition, the “solubility change mitosis (log2)” value in the series with HeLa Kyoto [4] was 0.0142.

For “MELTIFILRLAIYILTFPLYLLNFLGLWSWICKKWFPYFLVRFTVIYNEQMASKKRELFSNLQEFAGPSGKLSLLEVGCGTGANFKFYPPGCRVTCIDPNPNFEKFLIKSIAENRHLQFERFVVAAGENMHQVADGSVDVVVCTLVLCSVKNQERILREVCRVLRPGGAFYFMEHVAAECSTWNYFWQQVLDPAWHLLFDGCNLTRESWKALERASFSKLKLQHIQAPLSWELVRPHIYGYAVK [METTL7A]”, the results for the melting temperature in the series with HeLa Kyoto [1] (cell cycle stage: G1/S) and in the series with HeLa Kyoto [1] (cell cycle stage: mitosis) were 57.6 °C and 56.8 °C, respectively. The thermal stability score is 0.77 in the series with HeLa Kyoto [2] (setting [5]) and -0.471 in the series with HeLa Kyoto [2] (cell cycle stage: mitosis). Besides, in the series with HeLa Kyoto [3], the “solubility in G1/S (log2)” value was -0.294. In addition, in the series with HeLa Kyoto [4], the “solubility change mitosis (log2)” value is -0.0939.
